Assay: yeast display, Sf9 membrane polyspecificity reagent, FACS + sequencing; frameworks hold sequencing errors
In short: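 Galactose-induced (36–48 hours) yeast carrying a synthetic nanobody display library were exposed to 10% biotinylated, detergent-solubilized Sf9 membrane reagent at 4 °C for 1 hour. FACS followed streptavidin microbead enrichment, using low and high (top ~1%) gates for expression (anti-HA) and reagent binding (streptavidin). Colony PCR, MiSeq 2 × 250 sequencing and CDR-length filtering followed. Labels for polyreactivity reflect the gate of origin.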
For “QVQLVESGGGLVQAGGSLRLSCAASGFTFYKYTMGWYRQAPGKERELVAAIRSSGGRTYYADSVKGRFTISRDNAKNTVYLQMNSLKPEDTAVYYCNAVVDRLIFWQFDYWGQGTQVTVSS”, the “polyreactivity (PSR sort gate)” value was “high polyreactivity”.
In the case of “QVQLVESGGGLVQAGGSLRLSCAASGFTFYLNAMGWYRQAPGKERELVAAITGSGDDTYYADSVKGRFTISRDNAKNTVYLQMNSLKPEDTAVYYCAADVSYWYDYWGQGTQVTVSS”, the “polyreactivity (PSR sort gate)” value is reported as “high polyreactivity”.
With “QVQLVESGGGLVQAGGSLRLSCAASGFTFYNNAMGWYRPAPGKERELVAVITSNGGRTYYADSVKGRFTISRDNAKNTVYLQMNSVKPEDTAVYYCAKDYKALYLYHYRISGGDVDYWGQGTQVTVSS” the “polyreactivity (PSR sort gate)” value was “low polyreactivity”.
With “QVQLVESGGGLVQAGGSLRLSCAASGFTFYNYAMGWYRQAPGKERELVAAISWSGGSTHYADSVKGRFTISRDNAKNTVYLQMNSLKPEDTAVYYCAKFGVLGYYTYYYWGQGTQVTVSS” the “polyreactivity (PSR sort gate)” value was “low polyreactivity”.
For “QVQLVESGGGLVQAGGSLRLSCAASGFTFYNYAMGWYRQAPGKERELVAAITSSGTSTYYADSVKGRFTISRDNAKNTVYLQMNSLKPEDTAVYYCNAVSSYSYSYDYWGQGTQVTVSS”, the “polyreactivity (PSR sort gate)” value was “low polyreactivity”.
For “QVQLVESGGGLVQAGGSLRLSCAASGFTFYQYAMGWYRQAPGKERELVAAISSGGSTYYADSVKGRFTISRDNAKNTVYLQMNSLKPEDTAVYYCAARFYRPGVKQYGYWGQGTQVTVSS”, the “polyreactivity (PSR sort gate)” value was “high polyreactivity”.
For “QVQLVESGGGLVQAGGSLRLSCAASGFTFYQYAMGWYRQAPGKERELVAAITWNGGSTYYADSVKGRFTISRDNAKNTVYLQMNSLKPEDTAVYYCAAESPSKFDYDYWGQGTQVTVSS”, the “polyreactivity (PSR sort gate)” value was “high polyreactivity”.
In the case of “QVQLVESGGGLVQAGGSLRLSCAASGFTFYRNAMGWYRQAPGKERELVAAISSRGGSTYYADSVKGRFTISRDNAKNTVYLQLNSMKPEDNAVYYCAAYGNYNEYDYGGQGTQVTVSS”, the “polyreactivity (PSR sort gate)” value is reported as “high polyreactivity”.
For “QVQLVESGGGLVQAGGSLRLSCAASGFTFYRNAMGWYRQAPGKERELVAAISSRGGSTYYADSVKGRFTISRDNAKNTVYLQMNSLKPEDTAVYYCAAYGNYNEYDYWGQGTQVTVSS”, the “polyreactivity (PSR sort gate)” value was “high polyreactivity”.
In the case of “QVQLVESGGGLVQAGGSLRLSCAASGFTFYRNAMGWYRQAPGKERELVARISRRGGITSYADSVKGRFTISRDNAKNTVYLQMNSLKTEDTAVYYCKAEKRGQSYRFDYWGQGTQVTVSS”, the “polyreactivity (PSR sort gate)” value is reported as “high polyreactivity”.
For “QVQLVESGGGLVQAGGSLRLSCAASGFTFYRNTMGWYRQAPGKERELVAAISTRDGSTYYADSVKGRFTISRDNAKYTVYLPMNSLKPEDTAVYYCAVLTYRGRFEYWGQGTQVTVSS”, the “polyreactivity (PSR sort gate)” value was “high polyreactivity”.
For “QVQLVESGGGLVQAGGSLRLSCAASGFTFYRNTMGWYRQAPGKERELVAAITQRGGSTYYADSVKGRFTISRDNAKNTVYLQMNSLKPEDTAVYYCNRDVKVLYASSHSPYGYDHWGQGTQVTVSS”, the “polyreactivity (PSR sort gate)” value was “low polyreactivity”.
For “QVQLVESGGGLVQAGGSLRLSCAASGFTFYRYAIGWYRQAPGKETQFFASISRSGGSTYYADSVKGRFTISRDNAKNTVYLQMNSLKPEDTEVYYCAKSYTSSPFRIRDYWGQGTQVTVSS”, the “polyreactivity (PSR sort gate)” value was “high polyreactivity”.
With “QVQLVESGGGLVQAGGSLRLSCAASGFTFYRYAMGSYRQAPGKERELVAAITFRGDSTYYADSVKGRFTISRDNAKNTVYLQMNSLKPEDTAVYYCAADRPSGWYSYLSLYIVRRGYWGQGTQVTVSS” the “polyreactivity (PSR sort gate)” value was “low polyreactivity”.
In the case of “QVQLVESGGGLVQAGGSLRLSCAASGFTFYRYAMGWYRPAPGKERELVAAITSGGSTYYADSVKGRCTISRDNAKNTVFLQMISLKPEDTAVYSCAAQKARVSPGAWTRYVYWGQGTQVTVSS”, the “polyreactivity (PSR sort gate)” value is reported as “high polyreactivity”.
In the case of “QVQLVESGGGLVQAGGSLRLSCAASGFTFYRYAMGWYRPATGKERELVATISASGGSTYYADSVKGRFTISRDNAKNTVYLQMNSLKPEDTAVYYCAVRYKSWYGFNYWGQGTQVTVSS”, the “polyreactivity (PSR sort gate)” value is reported as “high polyreactivity”.
With “QVQLVESGGGLVQAGGSLRLSCAASGFTFYRYAMGWYRQAPGKERELVAAISGSGCSKYYADSVKGRFTISRDNAKNTVYLHRNSLKPEDTAVYYCNTVWFYGAKYDYWGQGTQVTVSS” the “polyreactivity (PSR sort gate)” value was “high polyreactivity”.
With “QVQLVESGGGLVQAGGSLRLSCAASGFTFYRYAMGWYRQAPGKERELVAAISQRGGRTYYADSVKGRFTISRDNAKTTVYLQMNSLKPEDTAVYYCNARYSGYGLYDYWGQGTQVTVSS” the “polyreactivity (PSR sort gate)” value was “high polyreactivity”.
With “QVQLVESGGGLVQAGGSLRLSCAASGFTFYRYAMGWYRQAPGKERELVAAISTSGVSTYYADSVKGRFTISRDNAKNTVYLQMNSLKPEDTAVYYCAKAGWRGSYIYYRFRVGYDSWGQGTQVTVSS” the “polyreactivity (PSR sort gate)” value was “high polyreactivity”.
For “QVQLVESGGGLVQAGGSLRLSCAASGFTFYRYTMGWNRQAPGKERELVASITRRGGSTYYADSVKGRFTISRDNAKNTVYFQMNSLKPEDTAVYYCNAATPVWQSGTYEYWGQGTQVTVSS”, the “polyreactivity (PSR sort gate)” value was “high polyreactivity”.
With “QVQLVESGGGLVQAGGSLRLSCAASGFTFYRYTMGWYRQPPGKERELVAAISARGVSTYYADSVKGRFTISRDNAKNTVYLQMNSLKPEDTAVYYCYVSRYDSWGQGTQVTVSS” the “polyreactivity (PSR sort gate)” value was “high polyreactivity”.
In the case of “QVQLVESGGGLVQAGGSLRLSCAASGFTFYSNAMGWYRQAPGKERELVAAITWRGGSTNYADSVKGRFTISRDNAKNTVYLHMNSLKPEETAVYYCAAVTYWFWPGMDYWGQGTEVTVSS”, the “polyreactivity (PSR sort gate)” value is reported as “low polyreactivity”.
With “QVQLVESGGGLVQAGGSLRLSCAASGFTFYSNAMGWYRQAPGKERELVAVINSDDDSTYYADSVKGRFTISRDNAKNTVYLQMNSLKPEDTAVYYCNKVWRVGKYPYSDRYYFGGGYWGQGTQVTVSS” the “polyreactivity (PSR sort gate)” value was “high polyreactivity”.
With “QVQLVESGGGLVQAGGSLRLSCAASGFTFYSYAMGWYRPAPGKERELVAAISSGGSTKYADSVKGRFTISRDNAKNTVYLQMNSVKPEDTEVYYCAARYYRDYRWYTYAYDYWGQGTQVTVSS” the “polyreactivity (PSR sort gate)” value was “high polyreactivity”.
With “QVQLVESGGGLVQAGGSLRLSCAASGFTFYSYAMGWYRQAPGKERELVAAISGGGGSTYYADSVKGRFTISRDNAKNTVYLQMNSLKPEDTAVYYCAKRPAYRGYGLGYYWGQGTQVTVSS” the “polyreactivity (PSR sort gate)” value was “high polyreactivity”.
In the case of “QVQLVESGGGLVQAGGSLRLSCAASGFTFYSYAMGWYRQAPGKERELVAAISRSGGSTRYADSVKGRFTISRDNAKNTVYLQMNSLKPEDTAVYYCAARSWYPYRYSSLYYWGQGTQVTVSS”, the “polyreactivity (PSR sort gate)” value is reported as “high polyreactivity”.
In the case of “QVQLVESGGGLVQAGGSLRLSCAASGFTFYSYAMGWYRQAPGKERELVAAISWSGTRTYYADSVKGRFTISRDNAKYTVYLQMNSLKPEDTAVYYCAARGYRYGYGYWGQGTQVTVSS”, the “polyreactivity (PSR sort gate)” value is reported as “high polyreactivity”.
With “QVQLVESGGGLVQAGGSLRLSCAASGFTFYSYAMGWYRQAPGKEWELVAAISRRGGSTYYADSVKGRFTISRDNAKNTVYLQMNCLKPEDTAVYYCAAEDSNSRYLYGYDYWGQGTQVTVSS” the “polyreactivity (PSR sort gate)” value was “high polyreactivity”.
With “QVQLVESGGGLVQAGGSLRLSCAASGFTFYSYPLGWYRQAPGKERELVAAITRGGRTYYADSVKGRFTISRDNAKTTVYLQMNSLKPDDSAVSYCNATAGHGYYYWGQGTQVTVSS” the “polyreactivity (PSR sort gate)” value was “high polyreactivity”.
In the case of “QVQLVESGGGLVQAGGSLRLSCAASGFTFYTNAMGWYRQAPGKERELVAGINSGSSTYYADSVKGRFTISRDNAKNNVYLQMNSLKPEDTAVYYCAARRSRYIHRGFGYWGQGTQVTVSS”, the “polyreactivity (PSR sort gate)” value is reported as “high polyreactivity”.
With “QVQLVESGGGLVQAGGSLRLSCAASGFTFYTNTMGWYRQAPGKERELVAAISSGGSTYYADSVKGRFTISRDNAKNTVYLQMNRLKPEDTAVYYCNAYDYHDVADDYWGQGTQVTVSS” the “polyreactivity (PSR sort gate)” value was “low polyreactivity”.
With “QVQLVESGGGLVQAGGSLRLSCAASGFTFYTNVMAWYRQAPGKERELVAAINSGGSTNYADSVKGRFTISRDNAKNTVFLQMNSLKPEDTAVYYCNKRGTEIGYDYWGQGTQVTVLS” the “polyreactivity (PSR sort gate)” value was “low polyreactivity”.
With “QVQLVESGGGLVQAGGSLRLSCAASGFTFYTNVMGWYIQAPGKERELVAAINSGGSTNYADSVKGRFTISRDNAKNTVYLQMNSLKPEDTAVYYCNKRGTEIGYDYWGQGTQVTVLS” the “polyreactivity (PSR sort gate)” value was “low polyreactivity”.
With “QVQLVESGGGLVQAGGSLRLSCAASGFTFYTYAMGLYRQAPGKERELVAAITSSGGSTYYADSVKGRFTISRDNAKNTVYLQMKSLKPEDTAVYYCNAVSYYLGDDYWGQGTQVTVSS” the “polyreactivity (PSR sort gate)” value was “high polyreactivity”.
With “QVQLVESGGGLVQAGGSLRLSCAASGFTFYTYAMGWYRQAPGKERELVAAISGSGSRTYYADSVKGRFTISRDNAKNTVYLQMNSLKPEDTAVYYCNAGYGSGSLHREFNYWGQGTQVTVSS” the “polyreactivity (PSR sort gate)” value was “low polyreactivity”.
With “QVQLVESGGGLVQAGGSLRLSCAASGFTFYTYAMGWYRQAPGKERELVAAITGSGGRTYYADSVKGRFTISRDNAKTTVYLQMNSLKPEDTAVYYCAALYVYRPRTPYGYWGQGTQVTVSS” the “polyreactivity (PSR sort gate)” value was “high polyreactivity”.
For “QVQLVESGGGLVQAGGSLRLSCAASGFTFYTYAMGWYRQAPGKERELVATITGRTGSTYYADSVKGRFTISRDNAKNTVYLQMNSLKPEDTAVYYCAADWGKLHVTWFRVNYWGQGTQVTVSS”, the “polyreactivity (PSR sort gate)” value was “low polyreactivity”.
In the case of “QVQLVESGGGLVQAGGSLRLSCAASGFTFYTYDMGWYRQAPGKERALVAAITSGVSTNYADSVKGRFTISRDNAKNTVYLQMNSLKPEDTAVYYCNKDVRPAYRWYDYWGQDTQVTVSS”, the “polyreactivity (PSR sort gate)” value is reported as “low polyreactivity”.
In the case of “QVQLVESGGGLVQAGGSLRLSCAASGFTFYTYFMGWYRPAPGKERELVAAITSGVSTNYADSVKGRFTISRDNAKNTVYLQMNSLKPEDTAVYYCNKDVRPAYRWYDYWGQDTQVTVSS”, the “polyreactivity (PSR sort gate)” value is reported as “low polyreactivity”.
In the case of “QVQLVESGGGLVQAGGSLRLSCAASGFTFYTYTMGWYRQAPGKERELVAVISRSGGSTYYADSVKGRFTISRDNAKNTVYLQMNSLKPEDTAVYYCNAGYWRFIDSYDYWGQGTQVTVSS”, the “polyreactivity (PSR sort gate)” value is reported as “high polyreactivity”.
In the case of “QVQLVESGGGLVQAGGSLRLSCAASGFTFYWTAMGWYRQAPGKERELVAAINGGDSTNYADSVKGRFTISRDNAKNTVYLQMNSLKPEDTAVYYCAKYYYTSIVGYDSWGQGTQVTVSS”, the “polyreactivity (PSR sort gate)” value is reported as “low polyreactivity”.
In the case of “QVQLVESGGGLVQAGGSLRLSCAASGFTFYWYDMGWYRQAPGKERELVSTISTGGGTNYADSVKGRFTISRDNAKNTVYLQMNSLKPEDNAVYYCAADGSAGYQWGYDFEGDYWGQGTEVTVSS”, the “polyreactivity (PSR sort gate)” value is reported as “high polyreactivity”.
With “QVQLVESGGGLVQAGGSLRLSCAASGFTFYWYTMAWNRQAPGKERELVAAISRRGGSTSYADSVKGRFTISRDNAKNTVYLQMNSLKPDDTAVYYCAKTPGWTDYDYWGQGTQVTVSS” the “polyreactivity (PSR sort gate)” value was “high polyreactivity”.
